Experimental data taken from publication PMC10164574, “Fission yeast Swi2 designates cell-type specific donor and stimulates Rad51-driven strand exchange for mating-type switching”.

Target: T1, Swi2N (Schizosaccharomyces pombe, UniProt Q10668 1-391)
T1 sequence: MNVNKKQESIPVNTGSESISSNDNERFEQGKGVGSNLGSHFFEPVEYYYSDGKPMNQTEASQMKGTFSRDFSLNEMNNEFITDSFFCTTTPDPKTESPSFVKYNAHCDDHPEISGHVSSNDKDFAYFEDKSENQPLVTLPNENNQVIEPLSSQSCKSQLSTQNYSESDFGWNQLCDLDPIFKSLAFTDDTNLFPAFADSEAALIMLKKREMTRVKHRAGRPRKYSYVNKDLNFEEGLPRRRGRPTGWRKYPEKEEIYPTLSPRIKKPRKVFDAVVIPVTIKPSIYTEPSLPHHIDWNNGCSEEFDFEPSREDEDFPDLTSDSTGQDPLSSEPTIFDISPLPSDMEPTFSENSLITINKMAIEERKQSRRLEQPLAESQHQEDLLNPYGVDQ
Assay: EMSA; 20 mM Tris-HCl pH 7.5, 100 mM NaCl, 5% glycerol, 1 mM DTT, room temperature 10 min; 1% agarose in TAE
Conditions: protein: recombinant; tags: His-SUMO removed by Ulp1; label: 5' FAM; single strand

B1: FAM-H1 (59 nt) (ssDNA)
DNA: CATGGAAACGAACGAGAGAAAACAAAGGAGAAAGACTATACATTTATATTACAAAAAAA
  binding result: no binding
